Laboratory results taken from PMC10397344.

System: MLH1 wt;PMS2 wt
Experiment: EMSA
Details: untreated; ATP; 20 mM HEPES pH 7.5, 40 ug/ml BSA, 1 mM DTT, 100 mM NaCl, 1.5 ul of 10 mM ATP added, 95 ng DNA, on ice 5 min; 4% native PAGE, 0.5xTBE pH 7.5

GT-DNA-substrate (G/T mismatch)
binding signal (% (reference)): 100
